assay: soluble on expression in E. coli; label from the status in PepcDB or PDB records

Q: For “MSDSDSVGESSHPKKTAPKKEKASPKNKKDDANESMVMTEEDRNVFTSIDKKGGGSKQMAIVDIYQKKSQLEHILLRPDSYIGSIEHTEKKPMWVYNMEDSKLEQRDISYVPGLFKIYDEILVNAADNKQRDRKMNTIRVTINKAKNEISVYNNGKGIPVTQHKVEKVFVPELIFGSLLTSSNFVGNQKAMIGGRNGYGAKLCNIFSTKFTCETSSRVYKSAFKQTWINNMTRDEEPTIVPSTDEDFTKITFSPDLAKFKMKELDDDICHLMARRAYDVAATCKGVDVILNGEMISVKGFEDYVKMYTSQITFEGEPLKTVYEQIGNRWQVALALSDVGFQQISFANNVSTTKGGRHVDHVVDQMIARLKGSIKQELSKDVDPFMIENHLWVFVNCLIEWPTFDSQTKEMMTLRHDRFGSTCALSKKFCKTALQIGLIRQISREIGVDIRENLVQKASESSPIKCIPKLEDAKEAGTKTSERCTLIVTEGDSAKTLAISGLSVVGRDKFGVFPLRGKLLNVRDASVKQIAENAEVNAMIKILGLQRDLKYEFDDEFRTLRYGKLMIMADQDQDGSHIKGLIISFLHHFWPSLIQRNFVEEFITPIVKATKGKEEVSFYSLPEYSEWRTNTDNWKSYKIKYYKGLGTSTAKEAKE”, which “soluble on expression in E. coli” value is on record?
A: not soluble

Q: For “MGSDKIHHHHHHMLHQANRTGASTRVEFILPDSIEGYIPLKADLHLHTYFSDGHLSPSARVREAWLDGLDAISVTDHIEYHPADTDMIGYLGATLPDGIEAHNVNKKTNVKPKQDLNKSVELTKKAAVSYGLLIIPGIEITREPKGIGHYNALFTTDNNGIYDPDPLTAIRNAKAQGALVMHNHPGWRRESIQHPDFELKAYGEGLIDGIEANNGTAFCPGTIDRAKEDNLFVASTTDLHDTSFEEYIGRGLRRDMTIILAKDRSLDAMRDALENRRTIGYGAGGTLMGQEYLLRQLFMSCVSISPVNGHNIQLKNPTSLRFIIHPDGKNPIVLPEFSSIILSDKDRGFSVDNAWTGADSFLRISL”, which “soluble on expression in E. coli” value is on record?
A: not soluble

Q: With “MARDVKKRGKPAYTNRRNRQKYLKKKDNKKKLSKSAVPIIKYTWDETKTPRENVRDMGIAFNPNDAVPIAEHRKEIIDAEPIDGVSIVVPKPEKKVTGRKKNEKQAAHIISNLEQQVKEEEEARAGQDRKFRLFHRETELCVYMLARHGEDFQAMTRDPKNLWQYTPKQWAKKIRTHKESEMCKFLETA” as the sequence, how does the “soluble on expression in E. coli” value read?
A: not soluble

Q: For “MGKYTEQAKLAAVKEYCAGKAGLRDVAHRHDVDFSCLRQWVAAYQIHGPAALKEKRRQRYSDEFKLAVLKRMHDERLSLRQTAALFDIRQFGIINLWQRLFDEGALNASSKPPKKAGRPRKMTTPLPPVNSSPINDESRSRDELLAEVKQLRMEVDYLKKLDALVQKKQRIAQQKKRKSLEHHHHHH”, which “soluble on expression in E. coli” value is on record?
A: not soluble

Q: For “RRNALELEVFAGQEKSELSMIEVARAILELRGRDHEMHFSDLVNEIQNYLGTSNSDIREALPLFYTELNFDGSFISLGDNKWGLRSWYGVDEIDEEIIALEENDDDEVAPKAKKKRVNAFMDGDSDAIDYNADDPEDEDAYEADPALSYDDENPDDEKNEVEAYDAEINEIAPDDLGEDVDLNEDDDEFSDDDAET”, which “soluble on expression in E. coli” value is on record?
A: not soluble

Q: With “MYMASISLKKGQKVDLTKTNPGLSKVLVGLGWDTNRYDGQNDFDLDVSIFLVGANGKVSGAEDFVFYNNPKGANGAVEHLGDNRTGEGEGDDEAIKVDLKNVPAHIERICFTITIYDGEGRSQNFGQVSNSFVRILDEEKNAELIRYDLGEDFSIETAVVVGELYRHAGDWKFNAIGSGFQGGLASLCNNFGLDVE” as the sequence, how does the “soluble on expression in E. coli” value read?
A: not soluble

Q: For “MTHVTLRSEFETLIDPYAPVAQVGTGFDFTEGPIWHPIDHYLLFSDMPGDVRRRWDARRGMAEVKRPSNKCNGMTYDAELNLIVCEHATSSLIRERPDGRREVLASHFGGQELNSPNDVCVHSSGAIYFSDPWYGRMPVYGVERPRQLGFQGVYRVMPGGEPKLVVDRNLFDQPNGLCFSPDERLLYVNDTVQALIRVFDVNADGTLSNARVFASSIKSELEPGLPDGMKCDQHGNVWVTAPGGVWVYSPRGELLGKVRVPELVANLAWGGPDFRTLYLTSTHSVYAIPTRVGPRHEPYMSGRRGGAGASAGPAAAAPILTDGEMRLDPQRCAMIIQDLQNDVIMDGGAFDGSGAPAHAKQQHVVENVRRLAEAARARGVAIIHVWFVVEPGAPGVTLNAPLFEGLVDSKAMVRGSWGAAPVSGLEPRPGDFVVEKMRMSAWEGTRLETILKATGRDMIINTGAWTNMSVEHTARTGADKGYFMIVPEDCCSTMNADWHSASINFAMQNVAIVTRADAVIRALGLEHHHHHH”, which “soluble on expression in E. coli” value is on record?
A: not soluble

Q: Which “soluble on expression in E. coli” value does the source give for “MGSSHHHHHHSQDPTVPAQLQFSAKTLDGHDFHGESLLGKPAVLWFWAPWCPTCQGEAPVVGQVAASHPEVTFVGVAGLDQVPAMQEFVNKYPVKTFTQLADTDGSVWANFGVTQQPAYAFVDPHGNVDVVRGRMSQDELTRRVTALTSR” here?
A: soluble

Q: For “MSDDALSRIAAALERMSPPPMPAPDFSAVDAFAWHTSPDRLEPVPRVARVDLSLLVGVNRARDILLDNTEHFARGLPANNALLWGSRGMGKSSLVKAIHAAVVAKGLPLKIVELSREDLPSVQRLLKHLRGAPFRFILFCDDLSFSHDDQHYKSLKAVLDGGIEGRPENVILYATSNRRHLMPRDMIENERSTAISPSEAVEEKVSLSDRFGLWLGFHPCSQDEYLEMIRGYCAAHGLSVAEEELRAEAIEWQATRGARSGRVAWQFFTDLAARHGVALLEHHHHHH”, which “soluble on expression in E. coli” value is on record?
A: not soluble

Q: With “MDTVNDSFSPGSSRPSPATLSREDCWSEEATFTLIQAWGNRYVDLSRGNLRQKHWQEVANAVNDRHYNTGRNVSAAKSQPYRTDVQCKNRIDTLKKKYKVEKARVSESNPGAYISPWPFFSALDDLLRESFPTSSNPDSTDNIPHQRLSLPMSINPVPVAPRSAIPRRPATSPAIIPHAGDDLLGFRGNLNAFAAAAAAAACPASEDDSEGSRSRSSGRSGSNKKRERKIEKKQGYKEVADAIERLGQIYERVEEKKRKEMVELEKQRMRFAKELECHRMQLFTEMQVRLHKLRRTSGSKGPTSSASAGET” as the sequence, how does the “soluble on expression in E. coli” value read?
A: soluble

Q: For “MSLEFYIADFKQIKEGKVTDIYFERTLKTLEYLGIKDAKVRMEVHSYGLPKGYEWALFTGLEEVLHLLEGVPVNVYAMPEGTLFKEIEPVMIIEGNYLDFGIYETAFLGILRHYSSISTKAARLKFLAMDKTLFFFGLRSLHPALAPMADRAAYIGGMDGVSGAMSKEYLGVDPSGTMPHALMLIVGDNVKAWKAFDEAMGSEVPRITLVDTFEDERTEALKAATLLGKKLYGIRLDTPSSRRGNFRKIIQEVKWTLKIHGYDHVKIFASGGIDEDDIINLRDIVDGFGIGTSIAFPPSVDFSADIVEKFVDGKWVPFTKRGKWPGAKQVYRCGKLNDVITLMDQEHPSSDCKPLLQKYMENGKIIKPLPSPKEIREYVIKQLTELQSSEGHHHHHH”, which “soluble on expression in E. coli” value is on record?
A: soluble

Q: Which “soluble on expression in E. coli” value does the source give for “MRGSHHHHHHGSVTTKRYTLPPLPYAYNALEPYISAEIMQLHHQKHHQGYVNGANAALEKLEKFRKGEAQIDIRAVLRDLSFHLNGHILHSIFWPNMAPPGKGGGKPGGKIADLINKFFGSFEKFKEEFSQAAKNVEGVGWAILVYEPLEEQLLILQIEKHNLMHAADAQVLLALDVWEHAYYLQYKNDRGSYVDNWWNVVNWDDVERRLQKALNGQIALKL” here?
A: soluble

Q: For “MSYYHHHHHHDYDIPTTGNLYFQGAMVAISFRPTADLVDDIGPDVRSCDLQFRQFGGRSQFAGPISTVRCFQDNALLKSVLSQPSAGGVLVIDGAGSLHTALVGDVIAELARSTGWTGLIVHGAVRDAAALRGIDIGIKALGTNPRKSTKTGAGERDVEITLGGVTFVPGDIAYSDDDGIIVV”, which “soluble on expression in E. coli” value is on record?
A: soluble

Q: For “MAAGQNGHEEWVGSAYLFVESSLDKVVLSDAYAHPQQKVAVYRALQAALAESGGSPDVLQMLKIHRSDPQLIVQLRFCGRQPCGRFLRAYREGALRAALQRSLAAALAQHSVPLQLELRAGAERLDALLADEERCLSCILAQQPDRLRDEELAELEDALRNLKCGSGARGGDGEVASAP”, which “soluble on expression in E. coli” value is on record?
A: soluble

Q: Which “soluble on expression in E. coli” value does the source give for “MSESFAELFEESLKSLDMQPGAIITGIVVDIDGDWVTVHAGLKSEGVIPVEQFYNEQGELTIKVGDEVHVALDAVEDGFGETKLSREKAKRAESWIVLEAAFAADEVVKGVINGKVKGGFTVDVNGIRAFLPGSLVDVRPVRDTTHLEGKELEFKVIKLDQKRNNVVVSRRSVLEAENSAEREALLESLQEGQQVKGIVKNLTDYGAFVDLGGVDGLLHITDMAWKRIKHPSEIVNVGDEIDVKVLKFDRERNRVSLGLKQLGEDPWVAIKARYPEGTRVMARVTNLTDYGCFAELEEGVEGLVHVSEMDWTNKNIHPSKVVQVGDEVEVQVLDIDEERRRISLGIKQCKSNPWEDFSSQFNKGDRISGTIKSITDFGIFIGLDGGIDGLVHLSDISWNEVGEEAVRRFKKGDELETVILSVDPERERISLGIKQLEDDPFSNYASLHEKGSIVRGTVKEVDAKGAVISLGDDIEGILKASEISRDRVEDARNVLKEGEEVEAKIISIDRKSRVISLSVKSKDVDDEKDAMKELRKQEVESAGPTTIGDLIRAQMENQGLEHHHHHH” here?
A: soluble

Q: With “MSLQKLAFSYVRFSSLKQRHGDSLKRQTDMVANWLLANPEYKLSGETSYQDLGKSGFSGAHLDNAFGRLLAAIENGAIPKGSAILIEQIDRAGRMEPMEMLPLLSRIVNAGVDLVTLDDGITYDRASVNSNHLFLLVAKVQQAHQYSDSLSRRLRAAYQTKRAKAAAGEGATRRMPLWIRDGKLRDDIAPFVTQVFEDYAAGIGERRILGRLKGQHPDFETISPSTFRRWLRNPVAVGRWNDIEDVWPAVVSKELWFRVQKRLTDGVKPKAASSKYLLSGLVKCARCGKNYCVGGQKGALTMLCVSRHRFGSGAGGCTNKRSIPYAVFDFIRSQTAHAALVRASQSQNLTASEKRQIEIDGELIELRKQSSHAAEGLVRYGMVKEITDVLDRVTDQIDRLEKERVMLQAVPAPATLDDMIDVENDLLDDDIVKLNALLQGVGYEMVVDDRTIVVCEASVFSTLQSQTYRYIGADRVTGTYKVTANDEVLHHLPNLDSKVQQDEYAEFLKKEARYESGELKRDEFRFNLETGEINREGHHHHHH” as the sequence, how does the “soluble on expression in E. coli” value read?
A: not soluble

Q: With “MLEELGKVVEFKGKGVELHLDGQGEPFLYPYMEYFLEKASRMKGVEVVSIQSNGTLLTEEKISAIEDYVTRINLSLSSLDEKTAKTLHGAYSVKKVKEVAEMIASSKMDLLIAPVWVPGYNDREIPKIIEFALEIGAGKKYPPLGIQKYIPYRYGRKAGKSMPFKEFYRRLEEYEKEYGVKLVLGPEDFGMEKRPK” as the sequence, how does the “soluble on expression in E. coli” value read?
A: not soluble

Q: With “MTTAVTQAIIDGFFDASNGDPFATLGMHETEQGIEIRTLLPDANRMVVIERESGKEITELDCVDERGFFVGVIPNCRQFFAYQLQVFWGNEAQIIEDPYRFHPMID” as the sequence, how does the “soluble on expression in E. coli” value read?
A: not soluble

Q: Which “soluble on expression in E. coli” value does the source give for “MLSLATFFITMTTHRKPSQEQGFLNGQFLLAMPGMSDERFARSVVYICAHSDEGAMGFIINQLQPVQFPDLLRQIGVIGEEDLIILPDRAQHMVVRNGGPVDRTRGFVLHSDDYMVDSTMPVSDDVCLTATVDILRAIYGGGGPERALMALGYSGWAPGQLEMEVAENGWLTCDAPLDMLFDSDIEGKYSRLMLHMGIDMSRLVSDAGHAAADPLEHHHHHH” here?
A: not soluble

Q: For “MAHHHHHHMSSHQILITAPEVYSKRFAQALEARSLIPMAVPVIETIATPDTADMRALLEQDLNGIDYIAFCSRCAVDSLSAALDHRYGGGGESVSERAGSAPAVNEDRRATAVVKVLAKCALAAIGKDADYVFERLRIRTTICPDEPSPAGIAAKLAESGRAEGRTIAVLAPCVEGFTEPDVVPRFVDQLKGMGMKVVRVDAYMTRPVSEEAVSAAVTALKNGSVRGVAFTSAGEIAVLLRRSPQCLMNIDVACFGPYTAGFAAKHGVKVSCVAKDFRSFDGFAATIEQHYASR”, which “soluble on expression in E. coli” value is on record?
A: soluble

Q: For “MNVVILDTGCANLNSVKSAIARHGYEPKVSRDPDVVLLADKLFLPGVGTAQAAMDQVRERELFDLIKACTQPVLGICLGMQLLGRRSEESNGVDLLGIIDEDVPKMTDFGLPLPHMGWNRVYPQAGNRLFQGIEDGAYFYFVHSYAMPVNPWTIAQCNYGEPFTAAVQKDNFYGVQFHPERSGAAGAKLLKNFLEM”, which “soluble on expression in E. coli” value is on record?
A: soluble

— the DeepSol protein solubility set
